These results are taken from patent US20140079722A1, “EXTRACELLULAR TARGETED DRUG CONJUGATES” (CENTROSE, LLC, priority 2011, published 2014).

Where a chain is given by its changes, count along the chain named.

For one series, the system named is PANC-1 xenograft. Nature of the series: PANC-1 xenograft model, alone and with gemcitabine. The conditions noted are these: gemcitabine alone 60 mg/kg i.p. q3dx5. In kind it is in vivo, C.B-17/IcrHsd-Prkdc scid Lyst bg mice. The protocol: A disease model of pancreatic cancer was established by implanting 5×10^6 PANC-1 cells in 100 μL DMEM into the left flank of 7 week old female C.B-17/IcrHsd-Prkdc^scidLyst^bg mice. Mice were then treated with M53-PEG24-CEN09-106 with a drug loading of 8 and/or gemcitabine when the tumor size in groups of 3 animals averaged ˜500 mm^3. Treatments consisted of either vehicle control, M53-PEG24-CEN09-106 at 0.2, 1 and 5 mg/kg, with and without 60 mg/kg gemcitabine or 60 mg/kg gemcitabine alone and consisted of multiple injections using the M53-PEG24-CEN09-106 schedule of one injection every 7 days for 3 injections (q7d×3) administered i.v. and the gemcitabine schedule of one injection every 3 days for 5 injections (q3d×5) administered i.p. Tumor volumes were measured for each group using calibrated vernier calipers and plotted against first day of tumor implant for 28 days post-initial dose, graphed and shown in FIG. 6.

In another series the test system is A549 xenografts. Put plainly: Second A549 xenograft study (tumor fragments). In kind it is in vivo, female HRLN nu/nu mice. The conditions noted are these: for growth inhibition of the tumor compared to vehicle: 100 days post-initial dose, EDC (loading 3) 5 mg/kg i.p. q3dx4, scillarenin aminoxyloside 20 mg/kg q2dx5, paclitaxel 15 mg/kg q1dx5; for weight loss: same dosing as efficacy arms, second A549 xenograft study. As to the method: Briefly, to establish a non-small-cell lung cancer disease model, subcutaneous A549 xenografts were initiated in female HRLN nu/nu mice by implanting 8 mm^3 A549 tumor fragments subcutaneously into the left flank. Tumor growth was monitored, and mice bearing tumors of 60-180 mm^3 were selected for the study. Tumor-bearing mice (n=7 mice/group) with a group average tumor volume of approximately 110 mm^3 were treated i.p. with 5 mgs/kg M53-PEG24-CEN09-106 at q3d×4, 20 mg/kg scillarenin-4-amino-deoxy-L-xylopryanoside (an intermediate in the construction of M53-PEG24-CEN09-106 and known cytotoxin) at q2dx5, and 15 mg/kg paclitaxel at q1d×5. Tumor volumes were measured for each group using calibrated vernier calipers plotted against day of first dose for 100 days to produce the graph shown in FIG. 4.
Paclitaxel at its optimum dosing produced 80% growth inhibition of the tumor when compared to vehicle.

The test system of series [1] is NSCLC cell line A549. Put plainly: In vitro cytotoxicity of M53-PEG24-CEN09-106 drug combinations. The format is cell-based. The conditions noted are these: Homo sapiens. As to the method: The studies employed a fixed ratio of the drugs (based on the EC50 values of each alone) across a concentration gradient. Single drug ED50 values were first determined and from those values combination analysis were prepared by 3-fold serial dilutions in 8 steps for all compounds. Combinations were tested using fixed concentration ratios. […] All compound concentrations and combinations were tested in duplicate. Cell culture and cell viability assays were performed as described.

For another series, the system named is A549 xenograft. Nature of the series: A549 xenograft model (cell implant). In kind it is in vivo, Hsd:Athymic Nude-Foxn1nu mice. The conditions noted are these: controls: paclitaxel 15 mg/kg q2dx5; control conjugate (loading 7) 10 mg/kg i.v. q7dx3; A549 xenograft. The protocol:
Briefly, to establish a non-small-cell lung cancer disease model, 6×10^6 A549 cells in 200 μL, RPMI1640+50% Matrigel HC (BD Biosciences, San Jose, Calif.) were implanted into the left flank of Hsd:Athymic Nude-Foxn1^nu mice (Harlan, Indianapolis, Ind.). Therapy with antibody-drug conjugates was then initiated when the tumor volume in groups of 5 animals averaged ˜300 mm^3. Treatment using vehicle control, 0.1 and 1 mg/kg M53-PEG24-CEN09-106, and 10 mg/kg control M53-PEG24-CEN09-106 (a control conjugate with a drug loading of 7 drugs per antibody where the antibody's target is not on the cell surface but drug and linker and antibody isotype are the same as M53-PEG24-CEN09-106) were all administered i.v. using the schedule of one injection every 7 days with 3 total injected doses (q7d×3). 15 mg/kg paclitaxel dosed at q2d×5 served as a positive control treatment group. Using this schedule, tumor volumes were measured for each group using calibrated vernier calipers and plotted against first day of tumor implant for 54 days post-implant and 40 days post-initial dose, to produce the graph shown in FIG. 3.

Another series relates to H460 xenograft. Put plainly: H460 xenograft model. The format is in vivo, Hsd:Athymic Nude-Foxn1nu mice. The conditions noted are these: H460 xenograft. The protocol: Briefly, to establish a large-cell lung cancer disease model, 1×10^6 H-460 cells in 100 μL RPMI1640+30% Matrigel HC (BD Biosciences, San Jose, Calif.) were implanted into the left flank of Hsd:Athymic Nude-Foxn1^nu mice (Harlan, Indianapolis, Ind.). Therapy was initiated when the tumor size in groups of 5 animals averaged ˜200 mm^3. Treatment using vehicle control, M53-PEG24-CEN09-106 at 0.1 and 1 mg/kg, and 10 mg/kg control M53-PEG24-CEN09-106 (as described above) consisted of multiple i.v. injections using the schedule of one injection every 7 days for 2 injections (q7d×2). Paclitaxel served as a positive control treatment group and was dosed i.v. at 15 mg/kg using the schedule of one injection every 2 days for 5 injections (q2d×5). Using this schedule, tumor volumes were measured for each group using calibrated vernier calipers and plotted against day of tumor implant for 24 days post-implant and 12 days post-initial dose, graphed and shown in FIG. 5.

The target of series [2] is T1, human dysadherin (human, UniProt Q96DB9 22-178).
T1 chain: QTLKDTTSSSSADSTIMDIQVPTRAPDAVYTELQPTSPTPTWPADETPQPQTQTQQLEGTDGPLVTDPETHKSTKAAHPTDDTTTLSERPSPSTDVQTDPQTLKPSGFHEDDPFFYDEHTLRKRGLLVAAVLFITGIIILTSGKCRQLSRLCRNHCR
Nature of the series: cell-based or functional assay.

Series [3] concerns NSCLC cell line A549. Put plainly: In vitro activity of chimeric and scFv conjugates against A549. The conditions noted are these: A549 cells; scFv conjugates. As to the method:
Cells were incubated with the agent/conjugate for 3 days before cell viability testing. Cell viability testing used the CellTiter-Glo luminescent cell viability assay (Promega, Madison, Wis.).

The target of series [4] is T1, human dysadherin. Put plainly: cell-based or functional assay.

As to `Nc1ccn([C@@H]2O[C@H](CO)[C@@H](O)C2(F)F)c(=O)n1` [Gemcitabine, reference compound], the “growth inhibition of the tumor compared to vehicle” value with PANC-1 xenograft is listed as 68%.

As to `C[C@]12CC[C@H](OC3OC[C@H](N)[C@@H](O)[C@@H]3O)C=C1CCC1C2CC[C@]2(C)[C@@H](c3ccc(=O)oc3)CC[C@]12O` (stereo partly drawn) [Scillarenin-4-amino-4-deoxy-L-xylopyranoside], in the series with A549 xenografts, the “growth inhibition of the tumor compared to vehicle” value was 60% and the weight loss was determined as 8%. In general, EC50 refers to the midpoint of the concentration-response curve. For `CO[C@H]1C[C@@H]2CC[C@@H](C)[C@@](O)(O2)C(=O)C(=O)N2CCCC[C@H]2C(=O)O[C@H]([C@H](C)C[C@@H]2CC[C@@H](OCCO)[C@H](OC)C2)CC(=O)[C@H](C)/C=C(\C)[C@@H](O)[C@@H](OC)C(=O)[C@H](C)C[C@H](C)/C=C/C=C/C=C/1C` [Everolimus], in the series with NSCLC cell line A549 [1] (drug alone, A549 cells, read-out: EC50), the EC50 stood at 11 nM.

For the molecule `CC(=O)O[C@H]1C(=O)[C@@]2(C)[C@H]([C@H](OC(=O)c3ccccc3)[C@]3(O)C[C@H](OC(=O)[C@H](O)[C@@H](NC(=O)c4ccccc4)c4ccccc4)C(C)=C1C3(C)C)[C@]1(OC(C)=O)CO[C@@H]1C[C@@H]2O` [Paclitaxel, reference compound], the “growth inhibition of the tumor compared to vehicle” value was found to be 45% in the series on A549 xenograft; 80% with A549 xenografts; 78% with H460 xenograft (controls: paclitaxel 15 mg/kg i.v. q2dx5, control conjugate 10 mg/kg i.v. q7dx2). Also, the weight loss came to 11% in the series with A549 xenografts and 15% with H460 xenograft (EDC 0.1 mg/kg q7dx2, paclitaxel 15 mg/kg q2dx5). For `CCN(CC)CCCCNc1ncc2cc(-c3cc(OC)cc(OC)c3)c(NC(=O)NC(C)(C)C)nc2n1` [PD 0173074], in the series on NSCLC cell line A549 [1] (A549), the EC50 was 29000 nM.

B1: scFv-PEG24-CEN09-106 (scFv)
scFv: ECQLVESGGGLVQPKGTLKLSCAASGFSFNTHAMNWVRQAPGKSLEWVARTMSKSNNYATYYADSVKDRFIISRDDSQSMLYLQMNNLKTEDTAMYYCVRDDPKRGMDYWGQGTSVTVSSGGGGSGGGGSGGGGSGIVMSQSPSSLAVSVGEKVTMSCKPSQSLLYSRNQKIYLAWYQQKPGQSPKLLIYWASTRESGVPDRFTGSGSGTDFTLIISSVRAEDLAVYYCQQYYNYPLTFGAGTKLELK
modifications: PEG24-CEN09-106 (scillarenin linker-drug) on the unpaired cysteine (position 23 of SEQ ID NO: 30)
With B1, the “EC50, in vitro activity against A549 cells” value in the series with human dysadherin [2] came out at 1.6 nM.

B2: scFv-PEG12-CEN09-016: scFv conjugate with PEG12 linker, 1 drug per scFv (conjugate)
scFv: B1 scFv
The molecule B2 had an EC50 in the series with NSCLC cell line A549 [3] of 9.1 nM.

B3: scFv-PEG36-CEN09-016: scFv conjugate with PEG36 linker, 1 drug per scFv (conjugate)
scFv: B1 scFv
As for B3, in the series on NSCLC cell line A549 [3], the concentration for a half-maximal effect (EC50) came out at 1.1 nM.

B4: M53-PEG24-CEN10-110 (antibody, V domains shown)
VH: EVQLVESGGGLVQPKGTLKLSCAASGFSFNTHAMNWVRQAPGKSLEWVARTMSKSNNYATYYADSVKDRFIIRADDSQSMLYLQMNNLKTEDTAMYYCVRDDPKRGMDYWGQGTSVTVSS
VL: GIVMSQSPSSLAVSVGEKVTMSCKPSQSLLYSRNQKIYLAWYQQKPGQSPKLLIYWASTRESGVPDRFTGSGSGTDFTLIISSVRAEDLAVYYCQQYYNYPLTFGAGTKLELKR
modifications: PEG24-CEN10-110 on reduced cysteine thiols; positions not given; PEG24-CEN10-110 (scillarenin linker-drug with lysine in the linker) on reduced cysteine thiols; positions not given
For the molecule B4, in the series with human dysadherin [4], the “EC50, cytotoxicity (CellTiter-Glo cell viability), A375 cells” value came out at 0.5 nM; the “EC50, cytotoxicity (CellTiter-Glo cell viability), A549 cells” value (“EC50, cytotoxicity … A549 cells” for short) was found to be 0.1 nM; the “EC50, cytotoxicity (CellTiter-Glo cell viability), H460 cells” value was determined as 0.2 nM.

B5: M53-PEG24-CEN-319 (antibody, V domains shown)
VH: B4 VH
VL: B4 VL
modifications: PEG24-CEN-319 on reduced cysteine thiols; positions not given; PEG24-CEN-319 (digitoxigenin 4-amino-xyloside PEG24 maleimide linker-drug) on reduced cysteine thiols; positions not given
As for B5, in the series with human dysadherin [4], the “EC50, cytotoxicity … A549 cells” value was 1.6 nM; the “EC50, cytotoxicity (CellTiter-Glo cell viability), H929 cells” value is above 200 nM; the “EC50, cytotoxicity (CellTiter-Glo cell viability), PANC cells” value is above 200 nM.

B6: cM53-PEG24-CEN09-106 (antibody, human IgG1, kappa, V domains shown)
VH: B4 VH with V2C, R73S, A74R
VL: B4 VL
modifications: PEG24-CEN09-106 on cysteine thiols; positions not stated (cysteine in place of valine at position 2 of SEQ ID NO: 23)
On to B6, for which the “EC50, in vitro activity against A549 cells” value in the series with human dysadherin [2] is 2 nM.

B7: M53-PEG24-CEN09-107 (antibody, V domains shown)
VH: B4 VH
VL: B4 VL
modifications: PEG24-CEN09-107 on reduced cysteine thiols; positions not given; PEG24-CEN09-107 (scillarenin 4-amino-riboside PEG24 maleimide linker-drug) on reduced cysteine thiols; positions not given
In the case of B7, in the series with human dysadherin [4], the “EC50, cytotoxicity (CellTiter-Glo cell viability), A375 cells” value was found to be 2.6 nM and the “EC50, cytotoxicity … A549 cells” value is 0.5 nM.
